Test results as given in paper PMC4728063.

Target: T1, RS1 (retinoschisin), human, recombinant, secreted from Sf21 insect cells (human), O15537
T1 chain: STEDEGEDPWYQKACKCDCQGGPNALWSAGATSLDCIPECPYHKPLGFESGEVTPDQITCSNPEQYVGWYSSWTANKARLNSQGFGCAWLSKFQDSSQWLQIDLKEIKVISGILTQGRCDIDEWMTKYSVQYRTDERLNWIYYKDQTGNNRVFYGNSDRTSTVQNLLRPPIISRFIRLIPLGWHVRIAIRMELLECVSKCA
Assay: negative stain single particle electron microscopy; purified RS1 adsorbed to glow discharged carbon-coated copper grids, stained with 0.75% uranyl formate; 2D classification (SPIDER) and 3D reconstruction (EMAN2, RELION, D8 symmetry enforced)
Conditions: remark: other sources report otherwise

B1: RS1 (retinoschisin), human, recombinant, secreted from Sf21 insect cells, O15537 24-224 (natural protein)
chain: T1 chain
Q: Which stoichiometry N does the source give for B1 here?
A: The stoichiometry N was 8.
